Reference: patent publication US20200332006A1 (ULTRAHUMAN NINE, published 2020)

How the values were obtained:
[1] = target: T1, human BTN2A1, expressed on HEK293 cells (human, UniProt Q7KYR7 29-527); assay: flow cytometry on transfected HEK293 cells, no primary antibody
T1 construct: also called NM_007049
T1 sequence: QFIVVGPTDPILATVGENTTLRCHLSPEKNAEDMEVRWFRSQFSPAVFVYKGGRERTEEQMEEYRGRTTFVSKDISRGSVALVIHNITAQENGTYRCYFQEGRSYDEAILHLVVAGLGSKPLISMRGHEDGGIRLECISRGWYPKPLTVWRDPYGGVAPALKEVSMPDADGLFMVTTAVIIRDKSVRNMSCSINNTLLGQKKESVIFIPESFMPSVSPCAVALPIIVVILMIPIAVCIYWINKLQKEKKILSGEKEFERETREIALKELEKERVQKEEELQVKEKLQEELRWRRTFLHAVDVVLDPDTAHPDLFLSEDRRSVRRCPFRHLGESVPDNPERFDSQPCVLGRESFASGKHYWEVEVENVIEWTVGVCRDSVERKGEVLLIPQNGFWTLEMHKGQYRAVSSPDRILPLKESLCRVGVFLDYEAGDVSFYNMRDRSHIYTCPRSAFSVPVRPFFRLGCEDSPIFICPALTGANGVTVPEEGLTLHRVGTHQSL

[2] = target: T2, human LSAMP, expressed on HEK293 cells (human, UniProt Q13449 29-315); assay: as above
T2 construct: also called BC033803
T2 sequence: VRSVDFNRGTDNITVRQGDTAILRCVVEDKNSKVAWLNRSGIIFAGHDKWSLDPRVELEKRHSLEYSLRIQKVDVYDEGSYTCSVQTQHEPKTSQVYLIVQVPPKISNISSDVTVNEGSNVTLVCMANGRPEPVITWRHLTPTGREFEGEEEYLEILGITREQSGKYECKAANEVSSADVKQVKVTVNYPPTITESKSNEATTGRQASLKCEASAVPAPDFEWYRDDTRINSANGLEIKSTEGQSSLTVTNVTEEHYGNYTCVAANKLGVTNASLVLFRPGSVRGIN

[3] = target: T3, human CD20, expressed on HEK293 cells (human, UniProt P11836 1-297); assay: as above
T3 construct: whole, on cells
T3 sequence (looked up): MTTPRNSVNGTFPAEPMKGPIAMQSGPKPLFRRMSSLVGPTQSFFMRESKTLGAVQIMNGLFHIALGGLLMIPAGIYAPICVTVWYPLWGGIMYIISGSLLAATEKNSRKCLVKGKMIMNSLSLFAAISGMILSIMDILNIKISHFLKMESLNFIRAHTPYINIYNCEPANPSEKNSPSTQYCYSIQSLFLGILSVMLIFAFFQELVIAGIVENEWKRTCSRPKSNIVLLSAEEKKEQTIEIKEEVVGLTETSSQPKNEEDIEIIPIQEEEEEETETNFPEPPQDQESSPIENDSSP

[4] = target: T1, human BTN2A1, expressed on HEK293 cells; assay: flow cytometry on live transfected HEK293 cells
Experimental: (§1) FIG. 11. […] Analyses of binding specificity were performed on HEK293 cells transiently transfected with plasmids encoding either human PD1, human BTN2A1, human LSAMP, human CD20 or ZS green marker only. Each antibody was used in staining at […] concentration and histograms are indicated per antibody in this figure.
(§2) Human cell membrane receptor proteome arrays were performed at Retrogenix Ltd. Primary screens: 2 μg/ml of each antibody was screened for binding against fixed HEK293 cells/slides expressing 5528 human plasma membrane and tethered secreted proteins individually. […] Antibody binding was detected using AF647 fluorescent secondary anti-human IgG1 antibody. Primary hits (duplicate spots) were identified by analysing fluorescence (AF647 and ZsGreen1) on ImageQuant. Confirmation/specificity screens: Expression vectors encoding ZsGreen1 only, or ZsGreen1 and CD20, PD1, BTN2A1, or LSAMP were transfected into human HEK293 cells. […] Cells were washed, and incubated with the same AF647 anti-human IgG Fc detection antibody as used in the cell microarray screens. Cells were again washed, and analysed by flow cytometry using an Accuri flow cytometer (BD). A 7AAD live/dead dye was used to exclude dead cells, and ZsGreen1-positive cells (i.e. transfected cells) were selected for analyses.

[5] = target: T1, human BTN2A1, expressed on HEK293 cells; assay: flow cytometry on transfected HEK293 cells, 2 ug/ml IgG
Experimental: as §1, §2

[6] = target: T2, human LSAMP, expressed on HEK293 cells; assay: as above
Experimental: as §1, §2

[7] = target: T3, human CD20, expressed on HEK293 cells; assay: as above
Experimental: as §1, §2

[8] = target: T4, biotinylated human PD1-His/AviTag (human, UniProt Q15116 25-170, biotinylated (AviTag)); assay: AlphaScreen epitope competition; competitor mu317 IgG on biotinylated monomeric human PD1
T4 construct: also called biotinylated monomeric human PD1
Experimental: (§3) The AlphaScreen assay (Perkin Elmer) was performed in a 25 μl final volume in 384-well white microtiter plates (Greiner). The reaction buffer contained 1×PBS pH 7.3 (Oxoid, Cat. nr. BR0014G) and 0.05% (v/v) Tween® 20 (Sigma, Cat. nr. P9416). Purified IgG samples were titrated in three fold serial dilutions starting at 500 nM final concentration and incubated with biotinylated human PD1-His/AviTag at 0.6 nM final concentration for 20 minutes at room temperature. […] Followed by addition of the Streptavidin Donor beads at 20 μg/ml (final concentration) and incubation for 30 minutes at room temperature. The emission of light was measured in the EnVision multilabel plate reader (Perkin Elmer) and analysed using the EnVision manager software. Values were reported as Counts Per Second (CPS) and corrected for crosstalk.

[9] = target: T5, human PD1 human Fc tagged recombinant protein (human, UniProt Q15116 25-170); assay: direct titration ELISA, IgG1null on coated PD1-Fc
T5 construct: also called human PD1-Fc; huPD1
Experimental: (§4) Binding and cross-reactivity of the lead panel to the recombinant proteins was initially assessed by binding ELISA. The human PD1 human Fc tagged recombinant protein and the cynomolgus monkey PD1 human Fc tagged recombinant protein were coated to the surface of MaxiSorp™ flat-bottom 96 well plate at 1 μg/ml. The Fab samples were applied at 1:5 dilution in 1% Skimmed Milk/1×PBS; 1 h at RT; 100 μl/well. IgGs were titrated in two fold serial dilutions starting from 500 nM to 0.98 nM and allowed to bind to the coated antigens. The Fabs were detected using mouse anti-c-myc antibody followed by donkey anti-mouse IgG conjugated to horseradish peroxidase. The IgGs were detected using the mouse anti-human IgG conjugated to horseradish peroxidase. Binding signals were visualized with 3,3′,5,5′-Tetramethylbenzidine Substrate Solution (TMB) and the absorbance measured at 450 nm.

[10] = target: T6, cynomolgus monkey PD1 human Fc tagged recombinant protein (cynomolgus monkey, UniProt Q15116 25-170 (human entry), limits assumed); assay: direct titration ELISA, IgG1null on coated PD1-Fc
T6 construct: also called cyno PD1-Fc; cyPD1
T6 chain: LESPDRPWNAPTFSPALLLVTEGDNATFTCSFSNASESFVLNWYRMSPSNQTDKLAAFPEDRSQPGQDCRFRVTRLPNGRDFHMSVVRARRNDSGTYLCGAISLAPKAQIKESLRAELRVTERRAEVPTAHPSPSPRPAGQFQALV
Experimental: as §4

[11] = target: T6, cynomolgus monkey PD1 human Fc tagged …; assay: direct titration ELISA, IgG1null on coated PD1-Fc (reference antibody)
Experimental: as §4

[12] = target: T4, biotinylated human PD1-His/AviTag; assay: AlphaScreen epitope competition; titrated IgG against mu317 IgG (parental IgG, 0.3 nM) on biotinylated monomeric human PD1
Experimental: as §3

T4 sequence (Q15116 25-170 limits assumed): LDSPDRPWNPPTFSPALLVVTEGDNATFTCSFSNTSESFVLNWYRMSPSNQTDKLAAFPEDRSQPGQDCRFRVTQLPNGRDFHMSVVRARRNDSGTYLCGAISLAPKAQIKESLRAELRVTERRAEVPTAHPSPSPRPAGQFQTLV
T5 sequence (Q15116 25-170 limits assumed): as above

Molecule	binding result [4]	fold fluorescence change versus mock (ZSgreen only) cells [5]	fold fluorescence change versus mock (ZSgreen only) cells [6]	fold fluorescence change versus mock (ZSgreen only) cells [7]	IC50 [8]	further results
AF647 anti-human IgG Fc detection antibody alone						fold fluorescence change versus mock (ZSgreen only) cells [1]: 1.1 fold; fold fluorescence change versus mock (ZSgreen only) cells [2]: 1.5 fold; fold fluorescence change versus mock (ZSgreen only) cells [3]: 0.9 fold
Antibody MH8, IgG1null format (antibody, V domains shown, Tested as IgG1null (human IgG1 L234A, L235A, G237A) with human Ckappa; also called clone MH8) VH: EVQLVESGGGLVQPGGSLRLSCAASGFTFSSYGMSWVRQAPGKGLEWVANIWQDGSTKYVDSVKGRFTISRDNAKNSLYLQMNSLRAEDTAVYYCARAYGNYWYIDRWGQGTTVTVSS VL: DIVMTQSPDSLAVSLGERATINCKSSQSVTNDVAWYQQKPGQPPKLLINYAYHRFTGVPDRFSGSGYGTDFTLTISSLQAEDVAVYYCHQAYSTPYTFGQGTKLEIK	no binding (tested: 2 ug/ml)	1.1 fold	7.1 fold	0.9 fold	0.39 nM	
Antibody 09C06, IgG1null format (antibody, V domains shown, Library-derived clone; Tested as IgG1null (human IgG1 L234A, L235A, G237A) with human Ckappa; also called clone 09C06) VH: EVQLVESGGGLVQPGGSLRLSCAASGFSFSSYGMHWVRQAPGKGLEWVANIWQDGSTNYVDSVKGRFTISRDNAKNSLYLQMNSLRAEDTAVYYCARAYGNYWYIDRWGQGTTVTVSS VL: DIVMTQSPDSLAVSLGERATINCKSSQSVSNDVAWYQQKPGQPPKLLINYASHRFTGVPDRFSGSGYGTDFTLTISSLQAEDVAVYYCHQAYSTPYTFGQGTKLEIK						binding result [9]: binds; binding result [10]: binds
Antibody MH12, IgG1null format (antibody, V domains shown, Tested as IgG1null (human IgG1 L234A, L235A, G237A) with human Ckappa; also called clone MH12) VH: EVQLVESGGGLVQPGGSLRLSCAASGFTFSSYGMSWVRQAPGKGLEWVANIWQDGSEKYVDSVKGRFTISRDNAKNSLYLQMNSLRAEDTAVYYCARAYGNYWYIDRWGQGTTVTVSS VL: DIVMTQSPDSLAVSLGERATINCKSSQSVTNDVAWYQQKPGQPPKLLINYAYHRFTGVPDRFSGSGYGTDFTLTISSLQAEDVAVYYCHQAYSTPYTFGQGTKLEIK		1.3 fold	4.1 fold	1.1 fold	0.624 nM	
Antibody MH4, IgG1null format (antibody, V domains shown, Tested as IgG1null (human IgG1 L234A, L235A, G237A) with human Ckappa; also called clone MH4) VH: EVQLVESGGGLVQPGGSLRLSCAASGFSLSSYGMSWVRQAPGKGLEWVAVIWQDGSTNYVDSVKGRFTISRDNAKNSLYLQMNSLRAEDTAVYYCARAYGNYWYIDRWGQGTTVTVSS VL: DIVMTQSPDSLAVSLGERATINCKSSQSVTNDVAWYQQKPGQPPKLLINYAYHRFTGVPDRFSGSGYGTDFTLTISSLQAEDVAVYYCHQAYSTPYTFGQGTKLEIK	no binding (tested: 2 ug/ml)	1.2 fold	1.9 fold	1.1 fold	0.63 nM	
Mu317 murine anti-PD1 v-domains, produced in human IgG1null format (antibody, V domains shown, Tested as IgG1null (human IgG1 with L234A, L235A, G237A) with human Ckappa; also called Mu317 IgG1; parental IgG) VH: QVQLKESGPGLVAPSKNLSITCTVSGFSLTSYGVHWIRQPPGKGLEWLGVIWAGGSTNYNSALMSRLSISKDNSRSQVFLRMNSLQTDDTAMYYCARAYGNYWYIDVWGAGTTVTVSS VL: DIVMTQTPKFLLVSAGDRVTITCKASQSVSNDVAWYQQKPGQSPKLLINYAFHRFTGVPDRFTGSGYGTDFIFTISTVQAEDLAVYFCHQAYSSPYTFGGGTKLEMK						binding result [11]: binds; IC50 [12]: 0.37 nM
